For test [1], the target named is T1, recombinant protein of the calcium-binding, EGF-like domains of LTBP1 (CE-LTBP1).
T1 construct: It was dried onto poly-L-lysine coated wells
Description: fluorescent peptide (100 nM) binding to plate-dried recombinant CE-LTBP1, reference scrambled peptide. Here is the method:
(§1) Peptide binding assay—Twenty-five micrograms of total equal protein from cartilage CHAPS extracts or five nanograms recombinant protein of the calcium-like EGF binding domain of LTBP1 (a kind gift of Sarah Dallas) or hypertrophic cartilage from day 17 avian embryo sterna and tibial growth plate cartilage from day 14 newborn rat pups were extracted with 0.5% CHAPS buffer and eluates immunoprecipitated with polyclonal antibody to LTBP1 and then samples were plated onto poly-L-lysine coated 96 well plates. After overnight drying, the protein-coated wells were incubated with 100 nM fluorescent-labeled peptide in Tris buffered saline [150 mM NaCl, 10 mM Tris, pH 8.0] and 20% horse serum for 4 hours at 16° C. After incubation, the wells are washed twice with binding buffer, the protein layer solubilized with 5N NaOH and fluorescence bound measured at 495 nm excitation and 520 nm emission on the LabSystems Fluoroskan Ascent CF plate reader. Statistical analyses and graphing were performed with Prism GraphPad software (ANOVA with Turkey's Analysis). A scrambled peptide of the same amino acid composition was prepared as a negative control. Competition assays were conducted in the presence of 10-fold more (1 μM) naked peptide.

For test [2], the target named is T2, LTBP1 immunoprecipitated from avian hypertrophic cartilage (avian (chick embryo)).
T2 construct: An immunoprecipitate: proteins associated with LTBP1 (TGFβ LLC components) may be present; also called hypertrophic cartilage immunoprecipitates
As to the kind of experiment: fluorescent peptide (100 nM) binding to plate-dried LTBP1 immunoprecipitate of avian hypertrophic cartilage, reference scrambled peptide. Here is the method:
as §1

The target of test [3] is T3, LTBP1 immunoprecipitated from rat tibial growth plate cartilage (rat, UniProt Q00918 21-1712, limits assumed).
T3 construct: An immunoprecipitate: proteins associated with LTBP1 may be present; also called rat tibial growth plate cartilage immunoprecipitated extracts
T3 sequence (Q00918 21-1712 limits assumed): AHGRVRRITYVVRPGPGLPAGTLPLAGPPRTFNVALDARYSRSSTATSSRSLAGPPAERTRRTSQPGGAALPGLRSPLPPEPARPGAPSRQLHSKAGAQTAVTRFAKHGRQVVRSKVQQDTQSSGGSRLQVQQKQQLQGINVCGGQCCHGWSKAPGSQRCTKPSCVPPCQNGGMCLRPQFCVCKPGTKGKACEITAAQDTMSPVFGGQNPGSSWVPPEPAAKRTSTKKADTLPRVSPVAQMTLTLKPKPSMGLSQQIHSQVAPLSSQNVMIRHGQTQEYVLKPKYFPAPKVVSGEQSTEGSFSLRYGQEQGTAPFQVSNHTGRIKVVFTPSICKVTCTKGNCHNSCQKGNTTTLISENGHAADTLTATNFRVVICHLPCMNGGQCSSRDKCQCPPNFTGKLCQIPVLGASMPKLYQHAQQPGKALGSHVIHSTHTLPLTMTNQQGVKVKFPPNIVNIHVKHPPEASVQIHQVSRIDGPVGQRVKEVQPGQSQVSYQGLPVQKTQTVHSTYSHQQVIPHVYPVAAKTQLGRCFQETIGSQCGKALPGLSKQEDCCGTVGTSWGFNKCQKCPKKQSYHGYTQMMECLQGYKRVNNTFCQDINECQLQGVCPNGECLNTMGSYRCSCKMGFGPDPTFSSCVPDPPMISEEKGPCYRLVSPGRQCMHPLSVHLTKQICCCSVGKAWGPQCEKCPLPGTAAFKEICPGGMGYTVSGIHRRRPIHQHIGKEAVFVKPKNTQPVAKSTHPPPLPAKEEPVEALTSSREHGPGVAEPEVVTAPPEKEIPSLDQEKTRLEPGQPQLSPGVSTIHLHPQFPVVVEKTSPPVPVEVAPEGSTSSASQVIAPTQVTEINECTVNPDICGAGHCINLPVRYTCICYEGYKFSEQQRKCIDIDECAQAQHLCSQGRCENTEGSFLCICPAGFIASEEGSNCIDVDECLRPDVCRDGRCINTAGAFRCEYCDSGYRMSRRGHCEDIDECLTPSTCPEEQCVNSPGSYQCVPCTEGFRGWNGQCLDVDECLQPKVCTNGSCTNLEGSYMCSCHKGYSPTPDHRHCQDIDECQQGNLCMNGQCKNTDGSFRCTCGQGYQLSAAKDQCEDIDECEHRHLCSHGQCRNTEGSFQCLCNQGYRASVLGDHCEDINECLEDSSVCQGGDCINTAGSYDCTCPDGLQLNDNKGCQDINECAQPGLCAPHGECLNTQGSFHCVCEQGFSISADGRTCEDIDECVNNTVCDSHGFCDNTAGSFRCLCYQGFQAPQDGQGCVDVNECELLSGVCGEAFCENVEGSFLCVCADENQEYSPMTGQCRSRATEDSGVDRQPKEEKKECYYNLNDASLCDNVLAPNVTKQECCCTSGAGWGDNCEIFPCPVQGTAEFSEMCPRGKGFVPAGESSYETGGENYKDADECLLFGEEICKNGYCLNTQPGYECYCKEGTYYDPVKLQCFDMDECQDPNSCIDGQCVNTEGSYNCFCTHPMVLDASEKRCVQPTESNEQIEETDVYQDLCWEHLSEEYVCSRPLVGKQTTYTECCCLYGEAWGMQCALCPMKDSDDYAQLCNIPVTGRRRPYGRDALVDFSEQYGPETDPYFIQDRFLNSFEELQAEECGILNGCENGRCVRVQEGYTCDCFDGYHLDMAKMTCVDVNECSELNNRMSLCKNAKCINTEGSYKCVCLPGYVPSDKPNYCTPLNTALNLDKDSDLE
Description: fluorescent peptide (100 nM) binding to plate-dried LTBP1 immunoprecipitate of rat tibial growth plate cartilage, reference scrambled peptide. Here is the method: as §1

Ends that are not written are not given here.

B1: MMP13-19 peptide (amino acids 93-111 of SEQ ID NO: 1) (peptide)
peptide: ELGLPKEVKKISAAVHFED
modifications: also: fluorescent-labeled in binding assay, label and position not given here
notes: also called MPP13-19; pxpt 001-1
In the case of B1, the “fold binding over scrambled peptide” value in test [1] was determined as 27 fold. Moreover, the “fold binding over scrambled control” value in test [2] is 10.5 fold; in test [3], 3.9 fold.

Source of the values: patent US20120088722A1 (PROTEAPEX THERAPEUTICS, published 2012).
